Patent publication US11325966

Tests used:
Test in all cases: cell-based or functional assay
92BR020 (HIV-1) = molecular target: 92BR020 (HIV-1)
92BR020 D325A (HIV-1) = molecular target: 92BR020 D325A (HIV-1)
92BR020 H33OA (HIV-1) = molecular target: 92BR020 H33OA (HIV-1)
[1] = molecular target: 92BR020 N136A + N156A + N301A (HIV-1)
[2] = molecular target: 92BR020 N136A + N332A (HIV-1)
[3] = molecular target: 92BR020 N156A + N332A (HIV-1)
92BR020 N301A (HIV-1) = molecular target: 92BR020 N301A (HIV-1)
92BR020 N386A (HIV-1) = molecular target: 92BR020 N386A (HIV-1)
92BR020 N392A (HIV-1) = molecular target: 92BR020 N392A (HIV-1)
92BR020 Q328A (HIV-1) = molecular target: 92BR020 Q328A (HIV-1)
92BR020 R327A (HIV-1) = molecular target: 92BR020 R327A (HIV-1)
[4] = molecular target: BG505 (T332N) N156A (HIV-1)
[5] = molecular target: BG505 (T332N) N295A (HIV-1)
[6] = molecular target: BG505 (T332N) N392A (HIV-1)
[7] = molecular target: HIV-1 Env of pseudovirus 7030102001E5(Rev-) (HIV-1)
[8] = molecular target: HIV-1 Env of pseudovirus C3347.c11 (HIV-1)
JR-CSF G324A (HIV-1) = JR-CSF G324A (HIV-1) (UniProt P20871)
JR-CSF H33OA (HIV-1) = JR-CSF H33OA (HIV-1) (UniProt P20871)
JR-CSF I326A (HIV-1) = JR-CSF I326A (HIV-1) (UniProt P20871)
JR-CSF N332A (HIV-1) = JR-CSF N332A (HIV-1) (UniProt P20871)
JR-CSF N339A (HIV-1) = JR-CSF N339A (HIV-1) (UniProt P20871)
JR-CSF N386A (HIV-1) = JR-CSF N386A (HIV-1) (UniProt P20871)
JR-CSF Q328A (HIV-1) = JR-CSF Q328A (HIV-1) (UniProt P20871)
[9] = molecular target: HIV-1 Env of pseudovirus 1012_11_TC21_3257 (HIV-1)
[10] = molecular target: HIV-1 Env of pseudovirus 191084 B7-19 (HIV-1)
[11] = molecular target: HIV-1 Env of pseudovirus 231965.c01 (HIV-1)
[12] = molecular target: HIV-1 Env of pseudovirus 3103.v3.c10 (HIV-1)
[13] = molecular target: HIV-1 Env of pseudovirus 62357_14_D3_4589 (HIV-1)
[14] = molecular target: HIV-1 Env of pseudovirus 6240_08_TA5_4622 (HIV-1)
[15] = molecular target: HIV-1 Env of pseudovirus 6244_13_B5_4576 (HIV-1)
[16] = molecular target: HIV-1 Env of pseudovirus 6545.v4.c1 (HIV-1)
[17] = molecular target: HIV-1 Env of pseudovirus C2101.c01 (HIV-1)
[18] = molecular target: HIV-1 Env of pseudovirus CNE17 (HIV-1)
[19] = molecular target: HIV-1 Env of pseudovirus CNE19 (HIV-1)
[20] = molecular target: HIV-1 Env of pseudovirus CNE20 (HIV-1)
[21] = molecular target: HIV-1 Env of pseudovirus CNE52 (HIV-1)
[22] = molecular target: HIV-1 Env of pseudovirus CNE53 (HIV-1)
[23] = molecular target: HIV-1 Env of pseudovirus Ce704809221_1B3 (HIV-1)
[24] = molecular target: HIV-1 Env of pseudovirus Q461.e2 (HIV-1)
[25] = molecular target: HIV-1 Env of pseudovirus T257-31 (HIV-1)
[26] = molecular target: HIV-1 Env of pseudovirus THRO4156.18 (HIV-1)
[27] = molecular target: HIV-1 Env of pseudovirus TRJO4551.58 (HIV-1)
[28] = molecular target: HIV-1 Env of pseudovirus X1254_c3 (HIV-1)
[29] = molecular target: HIV-1 Env of pseudovirus ZM135M.PE10a (HIV-1)

## 354BG8 (antibody)
92BR020 (HIV-1)
  IC50 in TZM-bl assay: 0.015 µg/mL
92BR020 D325A (HIV-1)
  IC50 in TZM-bl assay: 0.006 µg/mL
92BR020 H33OA (HIV-1)
  IC50 in TZM-bl assay: 0.018 µg/mL
[1]
  IC50 in TZM-bl assay: 0.001 µg/mL
[2]
  IC50 in TZM-bl assay: > 50 µg/mL
[3]
  IC50 in TZM-bl assay: > 50 µg/mL
92BR020 N301A (HIV-1)
  IC50 in TZM-bl assay: 0.009 µg/mL
92BR020 N386A (HIV-1)
  IC50 in TZM-bl assay: 0.012 µg/mL
92BR020 N392A (HIV-1)
  IC50 in TZM-bl assay: 0.023 µg/mL
92BR020 Q328A (HIV-1)
  IC50 in TZM-bl assay: 0.018 µg/mL
92BR020 R327A (HIV-1)
  IC50 in TZM-bl assay: 0.011 µg/mL
[4]
  IC50 in TZM-bl assay: 0.008 µg/mL
[5]
  IC50 in TZM-bl assay: 0.009 µg/mL
[6]
  IC50 in TZM-bl assay: 0.005 µg/mL
[7]
  IC50 in TZM-bl assay: 0.009 µg/mL
  IC80 in TZM-bl assay: 0.019 µg/mL
[8]
  IC50 in TZM-bl assay: > 10 µg/mL
  IC80 in TZM-bl assay: > 10 µg/mL
JR-CSF G324A (HIV-1)
  IC50 in TZM-bl assay: 0.005 µg/mL
JR-CSF H33OA (HIV-1)
  IC50 in TZM-bl assay: 0.05 µg/mL
JR-CSF I326A (HIV-1)
  IC50 in TZM-bl assay: 0.005 µg/mL
JR-CSF N332A (HIV-1)
  IC50 in TZM-bl assay: > 50 µg/mL
JR-CSF N339A (HIV-1)
  IC50 in TZM-bl assay: 0.01 µg/mL
JR-CSF N386A (HIV-1)
  IC50 in TZM-bl assay: 0.012 µg/mL
JR-CSF Q328A (HIV-1)
  IC50 in TZM-bl assay: 0.023 µg/mL

B1: 10-1074 (antibody, V domains shown)
VH: QVQLQESGPGLVKPSETLSVTCSVSGDSMNNYYWTWIRQSPGKGLEWIGYISDRESATYNPSLNSRVVISRDTSKNQLSLKLNSVTPADTAVYYCATARRGQRIYGVVSFGEFFYYYSMDVWGKGTTVTVSS
VL: SYVRPLSVALGETARISCGRQALGSRAVQWYQHRPGQAPILLIYNNQDRPSGIPERFSGTPDINFGTRATLTISGVEAGDEADYYCHMWDSRSGFSWSFGGATRLTVL
[9]
  IC50 in TZM-bl assay: 0.011 µg/mL
  IC80 in TZM-bl assay: 0.047 µg/mL
[10]
  IC50 in TZM-bl assay: 0.026 µg/mL
  IC80 in TZM-bl assay: 0.108 µg/mL
[11]
  IC50 in TZM-bl assay: > 10 µg/mL
  IC80 in TZM-bl assay: > 10 µg/mL
[12]
  IC50 in TZM-bl assay: 0.024 µg/mL
  IC80 in TZM-bl assay: 0.061 µg/mL
[13]
  IC50 in TZM-bl assay: > 10 µg/mL
  IC80 in TZM-bl assay: > 10 µg/mL
[14]
  IC50 in TZM-bl assay: 0.038 µg/mL
  IC80 in TZM-bl assay: 0.131 µg/mL
[15]
  IC50 in TZM-bl assay: 0.091 µg/mL
  IC80 in TZM-bl assay: 0.38 µg/mL
[16]
  IC50 in TZM-bl assay: > 10 µg/mL
  IC80 in TZM-bl assay: > 10 µg/mL
[17]
  IC50 in TZM-bl assay: > 10 µg/mL
  IC80 in TZM-bl assay: > 10 µg/mL
[18]
  IC50 in TZM-bl assay: 1.18 µg/mL
  IC80 in TZM-bl assay: 4.85 µg/mL
[19]
  IC50 in TZM-bl assay: 0.075 µg/mL
  IC80 in TZM-bl assay: > 10 µg/mL
[20]
  IC50 in TZM-bl assay: 0.002 µg/mL
  IC80 in TZM-bl assay: 0.005 µg/mL
[21]
  IC50 in TZM-bl assay: 1.99 µg/mL
  IC80 in TZM-bl assay: 9.76 µg/mL
[22]
  IC50 in TZM-bl assay: 0.013 µg/mL
  IC80 in TZM-bl assay: 0.058 µg/mL
[23]
  IC50 in TZM-bl assay: 0.084 µg/mL
  IC80 in TZM-bl assay: 0.395 µg/mL
[24]
  IC50 in TZM-bl assay: > 10 µg/mL
  IC80 in TZM-bl assay: > 10 µg/mL
[25]
  IC50 in TZM-bl assay: > 10 µg/mL
  IC80 in TZM-bl assay: > 10 µg/mL
[26]
  IC50 in TZM-bl assay: > 10 µg/mL
  IC80 in TZM-bl assay: > 10 µg/mL
[27]
  IC50 in TZM-bl assay: 0.057 µg/mL
  IC80 in TZM-bl assay: 0.218 µg/mL
[28]
  IC50 in TZM-bl assay: 0.063 µg/mL
  IC80 in TZM-bl assay: 0.239 µg/mL
[29]
  IC50 in TZM-bl assay: 0.061 µg/mL
  IC80 in TZM-bl assay: 0.263 µg/mL
